Assay results published in patent publication US20240368668A1, “SUBSTRATES AND BIOMARKERS OF ADAMTS7” (The Broad Institute, Inc., priority 2021, published 2024).
Square brackets hold non-standard residues; d marks the D form. Ends that are not written are not given here. deamidated = deamidated asparagine; Met(O) = CS(=O)CC[C@H](N)C(=O)O

Target: T1, mouse ADAMTS7 (Mus musculus, UniProt Q68SA9)
T1 construct: Full-length mouse Adamts7 1-1857 (Uniprot Q68SA9, WT or E373Q catalytic mutant); expressed in transfected cells; host or cells: Human Coronary Artery Smooth Muscle Cells (HCA-SMC, Lonza), adenovirus 50 MOI
T1 sequence (Q68SA9 221-1657): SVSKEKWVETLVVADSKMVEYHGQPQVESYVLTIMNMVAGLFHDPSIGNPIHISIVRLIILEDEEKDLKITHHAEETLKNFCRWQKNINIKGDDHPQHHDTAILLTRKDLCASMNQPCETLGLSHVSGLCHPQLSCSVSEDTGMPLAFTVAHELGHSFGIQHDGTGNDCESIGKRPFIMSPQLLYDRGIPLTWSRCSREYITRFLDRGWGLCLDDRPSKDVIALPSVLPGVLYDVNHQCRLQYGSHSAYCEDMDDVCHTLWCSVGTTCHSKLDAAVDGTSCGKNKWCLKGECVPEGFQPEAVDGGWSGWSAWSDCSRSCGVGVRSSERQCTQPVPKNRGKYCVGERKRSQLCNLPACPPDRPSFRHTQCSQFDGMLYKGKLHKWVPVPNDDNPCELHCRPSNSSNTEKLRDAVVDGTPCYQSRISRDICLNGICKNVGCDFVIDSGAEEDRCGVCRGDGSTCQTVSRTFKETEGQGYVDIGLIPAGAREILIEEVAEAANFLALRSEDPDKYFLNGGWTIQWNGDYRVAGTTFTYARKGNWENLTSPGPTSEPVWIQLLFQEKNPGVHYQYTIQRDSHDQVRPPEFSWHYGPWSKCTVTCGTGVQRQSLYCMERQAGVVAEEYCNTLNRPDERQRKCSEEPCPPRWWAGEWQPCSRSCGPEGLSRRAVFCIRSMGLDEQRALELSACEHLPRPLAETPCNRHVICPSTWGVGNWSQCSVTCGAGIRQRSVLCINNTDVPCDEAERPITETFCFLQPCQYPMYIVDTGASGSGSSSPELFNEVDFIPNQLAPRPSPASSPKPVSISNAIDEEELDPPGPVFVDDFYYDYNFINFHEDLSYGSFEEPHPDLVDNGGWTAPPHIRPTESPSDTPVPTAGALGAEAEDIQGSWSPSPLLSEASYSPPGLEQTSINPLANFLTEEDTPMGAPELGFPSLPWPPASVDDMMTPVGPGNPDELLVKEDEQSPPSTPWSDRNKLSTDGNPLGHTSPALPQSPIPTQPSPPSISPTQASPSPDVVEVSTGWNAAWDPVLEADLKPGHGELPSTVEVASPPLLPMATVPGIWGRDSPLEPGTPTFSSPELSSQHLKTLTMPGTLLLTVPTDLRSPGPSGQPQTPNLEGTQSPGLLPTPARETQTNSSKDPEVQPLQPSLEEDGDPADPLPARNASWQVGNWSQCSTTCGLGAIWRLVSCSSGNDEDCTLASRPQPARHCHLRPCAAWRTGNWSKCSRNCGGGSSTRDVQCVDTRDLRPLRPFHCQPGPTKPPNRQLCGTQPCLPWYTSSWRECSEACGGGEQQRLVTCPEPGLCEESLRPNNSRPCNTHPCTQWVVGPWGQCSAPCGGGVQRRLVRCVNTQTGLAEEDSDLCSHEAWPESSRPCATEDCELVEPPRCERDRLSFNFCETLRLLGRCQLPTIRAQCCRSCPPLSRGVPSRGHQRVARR
Test: TMT10 TAILS N-terminomics, SMC1 experiment (Ad-mADAMTS7 WT vs EQ vs Luc, technical replicates, trypsin digest)
Format: cell-based
Conditions: TAILS neo-N-terminal peptide abundance; log fold change, Ad-mADAMTS7 WT over Luc
In short: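 Full-length mouse ADAMTS7 (WT or E373Q mutant, C-terminal 3xFLAG) or luciferase was transduced via adenovirus, 50 MOI, into HCA-SMC (SMC1, SMC2) or HUVEC. SMC1: pooled media, technical triplicates 400 ug; SMC2: process triplicates 300 ug; HUVEC: process triplicates 200 ug, bFGF2 10 ng/ml.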

Substance | logFC.mWT.over.Lux
COL1A2_91 (GPMGLMGPR; listed as Homo sapiens) | 1.09
COL1A2_270 (VGNAGPAGPAGPR; listed as Homo sapiens) | 3.51
COL1A2_305 (LTGAKGAAGLPGVAGAPGLPGPR; listed as Homo sapiens) | 1.46
COL1A2_389 (SAGPPGPPGLR; listed as Homo sapiens) | 1.12
COL1A2_630 (VGTAGPSGPSGLPGER; listed as Homo sapiens) | 1.18
COL1A2_681 (VGAPGPAGATGDR; listed as Homo sapiens) | 1.27
COL1A2_731 (AAGQPGAKGER; listed as Homo sapiens) | 0.84
COL1A2_866 (LLGAPGILGLPGSR; listed as Homo sapiens) | 3.48
COL1A2_960 (AGAPGPHGPVGPAGKHGNR; listed as Homo sapiens) | 2.56
COL1A2_1037 (HHGDQGAPGSVGPAGPR; listed as Homo sapiens) | 2.30
COL1A2_1127 (SLRPKDYEVDATLKSLNNQIETLLTPEGSR; listed as Homo sapiens) | 2.23
COL8A1_90 (MKEIQPAPR; listed as Homo sapiens) | 1.10
COL18A1_1505 (LQPPVVQLHDSNPYPR; listed as Homo sapiens) | 1.41
ECM1_43 (YAAPPSPPLSR; listed as Homo sapiens) | 0.63
LTBP2_1602 (EAGVHFR; listed as Homo sapiens) | 1.63
MAN2A1_51 (LQEKIDHLER; listed as Homo sapiens) | 2.04
MAP4_815 (AVASTGPSSR; listed as Homo sapiens) | 1.29

Substance | logFC.mWT.over.Lux
MAP4_816 (VASTGPSSR; listed as Homo sapiens) | 1.44
MGAT4B_28 (LSGQKGDVVDVYQR; listed as Homo sapiens) | 1.43
MMP1_24 (LETQEQDVDLVQKYLEKYYNLKN(deamidated)DGR; listed as Homo sapiens) | 2.23
NID2_291 (HSSVPLGR; listed as Homo sapiens) | 3.96
NID2_374 (VGGPDLKGQVEPWDER; listed as Homo sapiens) | 4.80
NID2_951 (YAYPGAR; listed as Homo sapiens) | 3.35
NUCB1_317 (FLASTQR; listed as Homo sapiens) | 4.76
OS9_54 ([code q]SQSSDVVIVSSKYKQR; also: modified N-terminal Gln; listed as Homo sapiens) | 2.67
OS9_55 (SQSSDVVIVSSKYKQR; listed as Homo sapiens) | 2.23
PAPPA_41 (AAGPATCATR; listed as Homo sapiens) | 3.83
POSTN_413 (FSDDTLSMDQR; listed as Homo sapiens) | 2.29
POSTN_790 (FIEGGDGHLFEDEEIKR; listed as Homo sapiens) | 0.87
POSTN_807 (LLQGDTPVR; listed as Homo sapiens) | 1.10
PPP1R18_295 (LSETLTR; listed as Homo sapiens) | 3.60
PXDN_1341 (SYQEDKPTKKTR; listed as Homo sapiens) | 6.62
PXDN_1393 (QKTITDLR; listed as Homo sapiens) | 4.88

Second part, the substance after the results:

logFC.mWT.over.Lux | Substance
1.75 | CDC37_43 (FQKEKEELDR; listed as Homo sapiens)
2.02 | CDH11_467 (HQEAKVPVAIR; listed as Homo sapiens)
1.08 | CLEC11A_50 (HLQEALGLPAGR; listed as Homo sapiens)
2.55 | COL1A2_80 (QYDGKGVGLGPGPMGLMGPR; listed as Homo sapiens)
1.66 | COL1A2_113 (FQGPAGEPGEPGQTGPAGAR; listed as Homo sapiens)
1.17 | COL1A2_425 (ASGPAGVR; listed as Homo sapiens)
1.51 | COL1A2_1028 (LQGLPGIAGHHGDQGAPGSVGPAGPR; listed as Homo sapiens)
1.77 | COL4A2_71 (YNGPPGLQGFPGLQGR; listed as Homo sapiens)
5.97 | COL4A2_172 (YALPKEER; listed as Homo sapiens)
0.87 | COL5A1_544 (SQAQAILQQAR; listed as Homo sapiens)
1.11 | MAP1B_1065 (LTTPTKQLGAQSPGR; listed as Homo sapiens)
2.58 | NID2_467 (LEDNIGSNTEVFTYNAANKETCEHNHR; listed as Homo sapiens)
1.70 | NUCB1_228 (LKEVWEELDGLDPNR; listed as Homo sapiens)
2.25 | NUCB1_389 (LQQAVLHMEQR; listed as Homo sapiens)
1.00 | PDLIM4_104 (IDPEIQDGSPTTSR; listed as Homo sapiens)
1.51 | POLR3G_88 (LFCSHWSHIPGFK; listed as Homo sapiens)
1.77 | POSTN_754 (IITGPEIKYTR; listed as Homo sapiens)
1.13 | PSAP_171 (F[Met(O)]ANIPLLLYPQDGPR; listed as Homo sapiens)
